Laboratory results: paper PMC4835091, “Characterization of the FtsZ C-Terminal Variable (CTV) Region in Z-Ring Assembly and Interaction with the Z-Ring Stabilizer ZapD in E. coli Cytokinesis” (PLoS ONE, 2016)
Where a chain is given by its changes, count along the chain named. Names may count otherwise.

B1: FtsZ(DQAK) (purified) (natural protein, E. coli, UniProt P0A9A6 1-383, looked up)
chain: MFEPMELTNDAVIKVIGVGGGGGNAVEHMVRERIEGVEFFAVNTDAQALRKTAVGQTIQIGSGITKGLGAGANPEVGRNAADEDRDALRAALEGADMVFIAAGMGGGTGTGAAPVVAEVAKDLGILTVAVVTKPFNFEGKKRMAFAEQGITELSKHVDSLITIPNDKLLKVLGRGISLLDAFGAANDVLKGAVQGIAELITRPGLMNVDFADVRTVMSEMGYAMMGSGVASGEDRAEEAAEMAISSPLLEDIDLSGARGVLVNITAGFDLRLDEFETVGNTIRAFASDNATVVIGTSLDPDMNDELRVTVVATGIGMDKRPEITLVTNKQVQQPVMDRYQQHGMAPLTQEQKPVAKVVNDNAPQTAKEPDYLDIPAFLRDQAK
notes: FtsZ of E. coli with the native CTV KQAD replaced by DQAK (net-neutral); pKHH9, pET-21b(+); also called net-neutral CTV mutant; source: E. coli C41(DE3), purified (25% saturated ammonium sulfate cut)
B2: FtsZ(QQQQ) (purified) (natural protein, E. coli, UniProt P0A9A6 1-383, looked up)
chain: B1 chain with D380Q, A382Q, K383Q
notes: FtsZ of E. coli with the native CTV KQAD replaced by QQQQ (net-neutral); pLT1, pET-21b(+); also called net-neutral CTV mutant; source: E. coli C41(DE3), purified (25% saturated ammonium sulfate cut)
B3: FtsZ(RQAR) (purified) (natural protein, E. coli, UniProt P0A9A6 1-383, looked up)
chain: B1 chain with D380R, K383R
notes: FtsZ of E. coli with the native CTV KQAD replaced by RQAR (net-positive); pAM3, pET-21b(+); also called net-positive CTV mutant; source: E. coli C41(DE3), purified (25% saturated ammonium sulfate cut)
B4: FtsZ(DQAD) (purified) (natural protein, E. coli, UniProt P0A9A6 1-383, looked up)
chain: B1 chain with K383D
notes: FtsZ of E. coli with the CTV DQAD (net-negative) in place of KQAD; pKHH7, pET-21b(+); also called K380D; net-negative CTV mutant; source: E. coli C41(DE3), purified (20% ammonium sulfate cut)
B5: FtsZ(KQAK) (purified) (natural protein, E. coli, UniProt P0A9A6 1-383, looked up)
chain: B1 chain with D380K
notes: FtsZ of E. coli with the native CTV KQAD replaced by KQAK (net-positive); pKHH8, pET-21b(+); also called net-positive CTV mutant; source: E. coli C41(DE3), purified (25% saturated ammonium sulfate cut)
B6: FtsZ(NRNKRG) (purified) (natural protein, E. coli | B. subtilis)
chain: MFEPMELTNDAVIKVIGVGGGGGNAVEHMVRERIEGVEFFAVNTDAQALRKTAVGQTIQIGSGITKGLGAGANPEVGRNAADEDRDALRAALEGADMVFIAAGMGGGTGTGAAPVVAEVAKDLGILTVAVVTKPFNFEGKKRMAFAEQGITELSKHVDSLITIPNDKLLKVLGRGISLLDAFGAANDVLKGAVQGIAELITRPGLMNVDFADVRTVMSEMGYAMMGSGVASGEDRAEEAAEMAISSPLLEDIDLSGARGVLVNITAGFDLRLDEFETVGNTIRAFASDNATVVIGTSLDPDMNDELRVTVVATGIGMDKRPEITLVTNKQVQQPVMDRYQQHGMAPLTQEQKPVAKVVNDNAPQTAKEPDYLDIPAFLRNRNKRG
notes: FtsZ of E. coli up to the CTV; the native CTV KQAD (380-383) is replaced by the next part; also called EcftsZCTVB; source: E. coli C41(DE3), purified (25% saturated ammonium sulfate cut)
B7: FtsZ(1-379) (purified) (domain or fragment, E. coli, UniProt P0A9A6 1-379, looked up)
chain: MFEPMELTNDAVIKVIGVGGGGGNAVEHMVRERIEGVEFFAVNTDAQALRKTAVGQTIQIGSGITKGLGAGANPEVGRNAADEDRDALRAALEGADMVFIAAGMGGGTGTGAAPVVAEVAKDLGILTVAVVTKPFNFEGKKRMAFAEQGITELSKHVDSLITIPNDKLLKVLGRGISLLDAFGAANDVLKGAVQGIAELITRPGLMNVDFADVRTVMSEMGYAMMGSGVASGEDRAEEAAEMAISSPLLEDIDLSGARGVLVNITAGFDLRLDEFETVGNTIRAFASDNATVVIGTSLDPDMNDELRVTVVATGIGMDKRPEITLVTNKQVQQPVMDRYQQHGMAPLTQEQKPVAKVVNDNAPQTAKEPDYLDIPAFLR
notes: also called FtsZ lacking the CTV residues; FtsZ without the CTV region; source: E. coli C41(DE3), purified (25% saturated ammonium sulfate cut)
B8: GAL4 AD-FtsZ(RQAR) fusion (natural protein, E. coli, UniProt P0A9A6 1-383, looked up)
chain: B1 chain with D380R, K383R
notes: FtsZ of E. coli with the native CTV KQAD replaced by RQAR (net-positive); source: yeast two-hybrid fusion (pDEST-GADT7-ftsZ(RQAR) in S. cerevisiae SL3004, diploid after mating)
B9: GAL4 AD-FtsZ(DQAK) fusion (natural protein, E. coli, UniProt P0A9A6 1-383, looked up)
chain: B1 chain
notes: FtsZ of E. coli with the native CTV KQAD replaced by DQAK (net-neutral); source: yeast two-hybrid fusion (pDEST-GADT7-ftsZ(DQAK) in S. cerevisiae SL3004, diploid after mating)
B10: GAL4 AD-FtsZ(QQQQ) fusion (natural protein, E. coli, UniProt P0A9A6 1-383, looked up)
chain: B1 chain with D380Q, A382Q, K383Q
notes: FtsZ of E. coli with the native CTV KQAD replaced by QQQQ (net-neutral); source: yeast two-hybrid fusion (pDEST-GADT7-ftsZ(QQQQ) in S. cerevisiae SL3004, diploid after mating)
B11: GAL4 AD-FtsZ(NRNKRG) fusion (natural protein, E. coli | B. subtilis)
chain: B6 chain
notes: FtsZ of E. coli up to the CTV; the native CTV KQAD (380-383) is replaced by the next part; also called E. coli FtsZ with the B. subtilis CTV; source: yeast two-hybrid fusion (pDEST-GADT7-ftsZ(NRNKRG) in S. cerevisiae SL3004, diploid after mating)

Molecular target: the molecule itself
Test: sedimentation of FtsZ polymers; FtsZ or CTV mutant 5 μM alone in 50 mM K-MOPS pH 6.5, 50 mM KCl, 2.5 mM MgCl2, 3 μM BSA, 1 mM GTP, room temperature; TLA100.2, 80,000 rpm, 10 min; percent of FtsZ in the pellet by SDS-PAGE
Settings: not given
B1: binds.
B2: binds.
B3: binds.
B4: binds.
B5: binds.
B6: binds.
B7: binds.

These binders were tested against T1, GAL4 BD-ZapD fusion (E. coli, UniProt P36680 1-247) (assay: two-hybrid; GAL4 BD-ZapD with GAL4 AD-FtsZ fusions in diploid yeast grown in YNB (-Leu-Trp) at 30°C; beta-galactosidase activity in Miller units, mean of 10 independent trials). Settings: partners not purified.
T1 construct: ZapD, Z-ring stabilizer of E. coli; also called pDEST-GBKT7-zapD; source: yeast two-hybrid fusion (pDEST-GBKT7-zapD in S. cerevisiae PJ69-4A, diploid after mating)
T1 sequence (looked up): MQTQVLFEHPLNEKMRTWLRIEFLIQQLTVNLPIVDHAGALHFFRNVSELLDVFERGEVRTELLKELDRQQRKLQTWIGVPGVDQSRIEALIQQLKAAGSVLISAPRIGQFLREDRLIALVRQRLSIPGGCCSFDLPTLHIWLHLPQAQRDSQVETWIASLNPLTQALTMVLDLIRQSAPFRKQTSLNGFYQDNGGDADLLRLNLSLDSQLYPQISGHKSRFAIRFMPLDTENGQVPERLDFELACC
B8 showed a β-galactosidase activity of 155 Miller units.
B9 gave a β-galactosidase activity of 170 Miller units.
With B10 the β-galactosidase activity was 115 Miller units.
For B11, the β-galactosidase activity was 106 Miller units.
